Test results reported in patent US20060223116.

Legend:
[1] = test system: T1, truncated GST-fusion T-bet protein, N-terminal fragment
T1 sequence (Q9UL17 whole entry, species assumed, looked up): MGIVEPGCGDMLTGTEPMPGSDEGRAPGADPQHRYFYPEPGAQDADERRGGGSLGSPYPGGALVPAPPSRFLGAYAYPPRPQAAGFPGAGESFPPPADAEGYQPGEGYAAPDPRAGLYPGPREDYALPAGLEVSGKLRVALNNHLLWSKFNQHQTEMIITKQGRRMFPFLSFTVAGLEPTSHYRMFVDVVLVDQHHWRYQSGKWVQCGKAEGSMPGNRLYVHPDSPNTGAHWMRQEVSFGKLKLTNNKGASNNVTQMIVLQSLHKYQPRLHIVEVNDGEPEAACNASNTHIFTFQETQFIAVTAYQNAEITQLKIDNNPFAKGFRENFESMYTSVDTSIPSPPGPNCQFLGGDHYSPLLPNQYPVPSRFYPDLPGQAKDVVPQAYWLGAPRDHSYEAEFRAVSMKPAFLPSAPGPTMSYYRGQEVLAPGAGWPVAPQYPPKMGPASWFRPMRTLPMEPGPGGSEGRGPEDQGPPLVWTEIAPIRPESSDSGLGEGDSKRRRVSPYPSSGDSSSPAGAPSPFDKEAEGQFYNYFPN

[2] = test system: T2, truncated GST-fusion T-bet protein, C-terminal fragment
T2 sequence (Q9UL17 whole entry, species assumed, looked up): T1 sequence (Q9UL17 whole entry, species assumed, looked up)

Substance: RLK-MYC (resting lymphocyte kinase, MYC-tagged)
- in vitro kinase assay (32P-ATP, autoradiography) [1]: both the N and C terminal fragments but not the DNA binding domain, could be phosphorylated by the Tec kinases, ITK and RLK
- in vitro kinase assay (32P-ATP, autoradiography) [2]: both the N and C terminal fragments but not the DNA binding domain, could be phosphorylated by the Tec kinases, ITK and RLK
